Experimental data published in the RNAGym collection of RNA variant scans (doi:10.7554/elife.80360).

B1: HDV Ribozyme (parent)
chain: GGCCGGCAUGGUCCCAGCCUCCUCGCUGGCGCCGGCUGGGCAACAUUCCGAGGGGACCGUCCCCUCGGUAAUGGCGAAUGGGACCCA

Variants of: B1
Assay: self-cleavage, relative activity (ratio to wild type); higher = more cleavage; co-transcriptional

Variant	self-cleavage
U9G C48G	0.997
A45C C61A	0.671
C22U C57G	0.914
C58G G67U	0.892
C26G G29C	0.0504
G29C C48G	0.095
A8G G11C	0.0437
C33U G52U	0.747
A16G G25U	0.0875
U47A A71C	0.85
C13G A71U	0
U37C G55A	1
C19G C36U	0.0767
C30G U72C	0.0594
U12G U69A	0.997
C61G U65A	0.639
A51U A70C	0.886
G25C G68U	0.161
C30G G39C	0.131
G1U G39A	0.24
A51G C57G	0.916
C19G G31A	0.0554
U12C C85G	0.447
U12A C41U	0.147

Variant	self-cleavage
A56C C57A	1.22
C57G A83G	0.917
G5C G50U	0.0361
G31C C36U	0.0978
G81U A83G	0.152
G2C G25C	0.0346
G55U C58G	1.04
G28A A42U	0.0723
G11C C26A	0.462
C19U C66U	0.22
A8C U60G	0.554
G68C U79G	0.516
G6A G35A	0.302
G25U G52C	0.208
C4G A43U	0.0415
U37G	0.131
G59C C66A	0.914
A56C G81C	0.266
C21A U47C	0
U27G C48U	0.942
C7U C75A	0.177
C13A C30G	0.0282
G55U C61A	1.09
C22U G82U	0.23

Variant	self-cleavage
C7U U47C	0.482
G67C A78U	0.225
G6U A87G	0.377
C22U C36A	0.0739
U37C C64A	0.831
C15G C24A	0.482
G17C A70U	0.277
C13A A77C	0.0462
G2C U69G	0.157
C30G C36U	0.0443
G59U C61A	0.968
C7G U37C	0.399
G25A U60C	0.138
A42U G67A	0.47
C13U G76C	0.772
C24A A45C	0.19
G5A C49U	0.18
G38C G53A	0.313
G35A C63G	0.346
G1C U72A	0.32
C36G G67C	0.148
G1A G40U	0.0615
A70U G76C	1
G35U G74C	0.272

Variant	self-cleavage
C7G G52U	0.196
G35U C61A	0.428
C36G C62A	0.0791
A51C C86G	0.712
C15U G31U	0.248
C15U G31C	0.208
G25A U72A	0.158
G55A U79A	0.582
G35C U37C	0.18
G68C A71G	0.831
C30A U65A	0.341
G6U C62A	0.54
A56G A78U	0.181
G17U A43G	0.237
C24A G50C	0.855
A45U G53A	0.997
C24U A83C	0.219
G53A U65A	0.884
G11A U69G	0.374
C4G G31C	0.108
C57G C63A	0.956
C22G U46A	0.0519
C22G U46G	0.0875
C33U U46C	0.68

Variant	self-cleavage
C75A C84U	0.0545
U46C G52C	0.72
G6C C19G	0.192
G5C C49G	0.192
G25U C58G	0.18
A51U G54U	1.02
A16G C32A	0.107
G54U C64A	0.486
A45U G67C	0.719
C22U G39C	0.115
A16G C44G	0.767
G5U U79G	0
C15A U69A	0.506
G74C A78U	0.332
C19U G29U	0.153
A43U G55A	0.537
G59C G80A	0.409
U20G C22A	0.185
A45C G80A	0.187
G10A C24G	0.061
C4U C30G	0
C26A C61U	0.974
A45C G54A	0.597
C30G C63U	0.0231

Variant	self-cleavage
C18A A70U	0.0898
U23C U47G	1.28
C63U A78U	0.287
G31C G35U	0.158
G2A U37G	0
U47C A83U	0.378
C61A A71G	1.11
U27C A42C	0.431
C7G U12A	0
U20G G54U	0.125
G50U C66G	0.787
C22A U60A	0.326
G29A C84G	0.102
C24U C85A	0.831
C3U C24A	0.328
G6A C44G	0.111
G29C A78G	0
G73C A87C	0.592
A16C C61U	0.798
G11C C13A	0.142
A71U A77G	0.508
A71U A77U	0.415
A42C C86U	0.178
A42C C86A	0.312

Variant	self-cleavage
C15U C64A	0.636
C32G G68C	0
C58G A78C	0.102
C49U C66U	0.899
C44A A56U	0.614
U79C C86A	0.513
C44U G55U	0.831
C22G G34U	0.0627
U12C G59A	0.185
G34U G59C	0.142
C22U U46G	0.192
G40U C64U	0.59
G38C U79C	0.0264
G28C A43G	0.0573
C24G A56G	0.0875
U46C C62G	0.249
G73A C75U	0.119
C26U G80U	0.433
G38C C75U	0.0297
C19G C44G	0.0959
U65A A87U	0.96
C44G U72C	0.198
C58A C85U	0.869
